This note sets out measurements from patent US20060147922A1 (published 2006).

The target in experiment [1] is T1, EDDM, full length EDD with Cys2768 to Ala mutation (human, UniProt O95071 1-2799).
T1 construct: Stably overexpressed in HEK 293 cells (FLAG-CIB co-immunoprecipitation) or transfected for reporter assays; also called mutant EDD; ligase-defective EDD mutant
Briefly: anti-FLAG M2 immunoprecipitation from HEK 293 cells overexpressing mutant EDD, EDD western blot. On the procedure:
Left, HEK 293 cells overexpressing mutant EDD were transfected with a plasmid encoding Flag-tagged CIB or empty vector (vec). Extracts from these cells were subjected to immunoprecipitation using anti-FLAG Ab M2. Right, nuclear extracts prepared from MCF-7 cells following treatment with DNA damage agents phleomycin (Phleo) or hydroxyurea (HU) were incubated with either GST or GST-CIB fusion protein bound to glutathione-Sepharose beads. Bound proteins from both procedures were analysed by SDS-PAGE and western blotted for EDD and amounts bound are indicated as percentages relative to input.
Stable HEK 293 cells overexpressing EDDM were transfected with pCMVTag2C-CIB or empty vector using Fugene 6 reagent (Roche) for 24 h. Following 6 h incubation in the presence of MG132, cells were harvested and lysates prepared and one mg total protein incubated with anti-FLAG antibody M2 coupled to Sepharose (Sigma Chemical Co., St Louis, USA) for 2 h at 4° C. Beads were recovered by centrifugation and washed extensively in lysis buffer. Western blotting for EDD has been described (Callaghan et al, Oncogene 17, 3479-3491, 1998).
On the technique in general: In western blotting, separated proteins are transferred to a membrane and probed.

In experiment [2] the target is T2, GAL4 DBD-EDDM fusion (full length EDD C2768A mutant bait) (yeast; human, UniProt O95071 1-2799).
T2 construct: Bait for the yeast two-hybrid screen of a human placenta cDNA library; also called full length EDDM (C2768A mutant) bait
Briefly: yeast two-hybrid screen. The text has this:
The cDNAs for full length EDD mutant and carboxy domain mutants (EDDM and EDD5M) were screened against a human placenta cDNA library in the pACT2 vector by the yeast two-hybrid method (Matchmaker 2, Clontech, Palo Alto, Calif., USA). Stable transformants of Saccharomyces cerevisiae strain Y190 expressing EDD fusion protein were transformed with the library using the lithium acetate method and 2-3×10⁶ primary transformants selected on his-leu-trp-plates. Following a second round of selection on the same medium, colonies were assayed for β.galactosidase activity using a filter-based assay. Interacting plasmids that were positive for β.galactosidase only in the presence of the EDD bait plasmids were transformed into E. coli DH5α cells for further analysis. […] Sequences were analysed by Blast searches of the Genbank and EMBL databases and predicted proteins analysed for motifs using the ISREC Profile Scan Server (www.isrec.isb-sib.ch).
Further yeast two-hybrid screening was aimed at identifying other proteins involved in the ubiquitinylation or coactivation functions of EDD. […] The interaction between CIB and full length EDD initially detected in the yeast two-hybrid system (FIG. 10A) was confirmed by pull-down of in vitro translated EDD proteins with GST-CIB (FIG. 10B). […]

Experiment [3] concerns the target T3, EDDF1c (EDD aa 1-419) (human, UniProt O95071 1-419).
T3 construct: In vitro translated, 35S-labelled; Contains neither N-terminal NLS
T3 sequence: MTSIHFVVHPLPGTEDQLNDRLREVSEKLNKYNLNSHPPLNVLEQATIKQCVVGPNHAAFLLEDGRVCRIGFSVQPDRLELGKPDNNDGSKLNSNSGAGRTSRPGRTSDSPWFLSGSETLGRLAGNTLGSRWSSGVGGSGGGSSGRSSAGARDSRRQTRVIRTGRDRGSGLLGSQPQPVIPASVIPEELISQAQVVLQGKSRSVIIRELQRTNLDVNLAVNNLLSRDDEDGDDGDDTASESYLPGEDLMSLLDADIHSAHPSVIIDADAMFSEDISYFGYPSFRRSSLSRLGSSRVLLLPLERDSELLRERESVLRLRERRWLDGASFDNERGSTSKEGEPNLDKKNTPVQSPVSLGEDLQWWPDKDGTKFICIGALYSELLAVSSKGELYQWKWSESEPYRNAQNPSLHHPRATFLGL
Briefly: GST-importin α5 pull-down of IVT N-terminal EDD derivatives.

Experiment [4] deals with T4, EDDF2, central domain of EDD (aa 889-1877) (human, UniProt O95071 889-1877).
T4 construct: In vitro translated, 35S-labelled; also called central third; central region of EDD
T4 sequence: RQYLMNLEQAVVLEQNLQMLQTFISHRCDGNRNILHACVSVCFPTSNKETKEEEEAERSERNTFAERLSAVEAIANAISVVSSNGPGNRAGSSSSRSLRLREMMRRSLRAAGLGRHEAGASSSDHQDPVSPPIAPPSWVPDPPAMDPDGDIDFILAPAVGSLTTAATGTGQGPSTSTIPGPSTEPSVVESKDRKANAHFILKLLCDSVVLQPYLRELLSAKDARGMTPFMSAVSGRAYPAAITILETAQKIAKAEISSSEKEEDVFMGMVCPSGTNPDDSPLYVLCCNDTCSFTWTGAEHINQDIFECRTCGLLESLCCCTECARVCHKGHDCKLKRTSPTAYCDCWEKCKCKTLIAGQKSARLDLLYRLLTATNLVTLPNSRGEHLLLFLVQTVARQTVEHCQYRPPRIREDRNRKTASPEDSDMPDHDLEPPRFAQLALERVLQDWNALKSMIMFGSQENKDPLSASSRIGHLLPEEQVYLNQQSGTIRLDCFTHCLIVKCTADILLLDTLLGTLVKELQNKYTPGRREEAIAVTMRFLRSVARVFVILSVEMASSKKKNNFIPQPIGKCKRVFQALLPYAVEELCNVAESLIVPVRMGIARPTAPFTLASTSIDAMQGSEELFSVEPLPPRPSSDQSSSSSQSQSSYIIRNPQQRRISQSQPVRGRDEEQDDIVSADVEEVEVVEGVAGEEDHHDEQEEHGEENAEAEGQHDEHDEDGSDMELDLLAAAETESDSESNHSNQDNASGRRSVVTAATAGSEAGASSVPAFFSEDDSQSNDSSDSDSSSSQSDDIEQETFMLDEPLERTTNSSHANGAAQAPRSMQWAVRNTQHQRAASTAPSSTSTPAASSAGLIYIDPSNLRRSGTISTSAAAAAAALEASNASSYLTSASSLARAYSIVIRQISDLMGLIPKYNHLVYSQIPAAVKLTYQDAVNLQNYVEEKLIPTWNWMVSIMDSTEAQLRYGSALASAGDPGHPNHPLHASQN
The experiment in a line: GST-importin α5 pull-down of IVT 35S-EDD fragments.

The target of experiment [5] is T5, EDDF3, carboxy domain of EDD (aa 1877-2799) (human, UniProt O95071 1877-2799).
T5 construct: In vitro translated, 35S-labelled; also called carboxy third; carboxy terminal region of EDD
T5 sequence: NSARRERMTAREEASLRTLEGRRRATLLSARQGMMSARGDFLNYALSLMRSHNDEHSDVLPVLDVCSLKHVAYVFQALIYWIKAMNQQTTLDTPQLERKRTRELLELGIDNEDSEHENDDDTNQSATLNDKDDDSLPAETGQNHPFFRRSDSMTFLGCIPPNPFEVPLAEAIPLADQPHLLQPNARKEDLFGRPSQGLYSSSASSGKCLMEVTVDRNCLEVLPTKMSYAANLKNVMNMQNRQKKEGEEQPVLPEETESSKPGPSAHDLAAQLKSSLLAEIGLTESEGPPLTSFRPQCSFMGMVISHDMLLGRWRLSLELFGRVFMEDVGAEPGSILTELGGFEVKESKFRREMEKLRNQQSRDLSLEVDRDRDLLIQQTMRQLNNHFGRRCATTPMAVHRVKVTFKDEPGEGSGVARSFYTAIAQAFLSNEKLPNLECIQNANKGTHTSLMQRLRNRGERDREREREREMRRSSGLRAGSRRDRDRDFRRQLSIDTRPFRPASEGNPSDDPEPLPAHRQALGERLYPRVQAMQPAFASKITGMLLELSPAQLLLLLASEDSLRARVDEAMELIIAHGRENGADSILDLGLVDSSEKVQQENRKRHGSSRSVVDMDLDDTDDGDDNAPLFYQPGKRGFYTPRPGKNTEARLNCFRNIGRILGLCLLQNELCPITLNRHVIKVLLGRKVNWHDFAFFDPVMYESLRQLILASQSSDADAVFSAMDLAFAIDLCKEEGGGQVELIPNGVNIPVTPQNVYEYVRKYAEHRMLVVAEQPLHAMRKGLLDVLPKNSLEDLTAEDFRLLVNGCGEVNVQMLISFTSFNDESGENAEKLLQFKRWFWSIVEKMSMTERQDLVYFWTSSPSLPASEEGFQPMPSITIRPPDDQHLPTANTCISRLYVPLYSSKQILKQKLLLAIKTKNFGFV
The experiment in a line: GST-importin α5 pull-down of IVT 35S-EDD fragments.

In experiment [6] the target is T2, GAL4 DBD-EDDM fusion (full length EDD …). Briefly: yeast two-hybrid screen; truncated clone. From the text: The cDNAs for full length EDD mutant and carboxy domain mutants (EDDM and EDD5M) were screened against a human placenta cDNA library in the pACT2 vector by the yeast two-hybrid method (Matchmaker 2, Clontech, Palo Alto, Calif., USA). Stable transformants of Saccharomyces cerevisiae strain Y190 expressing EDD fusion protein were transformed with the library using the lithium acetate method and 2-3×10⁶ primary transformants selected on his-leu-trp-plates. Following a second round of selection on the same medium, colonies were assayed for β.galactosidase activity using a filter-based assay. Interacting plasmids that were positive for β.galactosidase only in the presence of the EDD bait plasmids were transformed into E. coli DH5α cells for further analysis. Manual sequencing was carried out using ³³P end-labelled primer in conjunction with the fmol Cycle sequencing kit (Promega Corp., Madison, Wis., USA). Sequences were analysed by Blast searches of the Genbank and EMBL databases and predicted proteins analysed for motifs using the ISREC Profile Scan Server (www.isrec.isb-sib.ch).

B1: FLAG-tagged CIB (full-length CIB in pCMVTag2C) (other, not shown: small tags and cut ends)
chain: MGGSGSRLSKELLAEYQDLTFLTKQEILLAHRRFCELLPQEQRTVESSLRAQVPFEQILSLPELKANPFKERICRVFSTSPAKDSLSFEDFLDLLSVFSDTATPDIKSHYAFRIFDFDDDGTLNREDLSRLVNCLTGEGEDTRLSASEMKQLIDNILEESDIDRDGTINLSEFQHVISRSPDFASSFKIVL
notes: Expressed in HEK 293 cells overexpressing EDDM
With B1, the binding result in experiment [1] is on record as “binds”.

B2: GAL4 AD-CIB fusion, full length CIB/KIP (other, not shown: large carriers)
chain: B1 chain
notes: Yeast two-hybrid prey clone from a human placenta cDNA library; also called CIB/KIP full-length clones
As for B2, the binding result in experiment [2] was “binds”.

B3: GST fused to amino acids 263-538 of human importin α5 (NPI-1) (other)
chain: LFVSDTDVLADACWALSYLSDGPNDKIQAVIDAGVCRRLVELLMHNDYKVVSPALRAVGNIVTGDDIQTQVILNCSALQSLLHLLSSPKESIKKEACWTISNITAGNRAQIQTVIDANIFPALISILQTAEFRTRKEAAWAITNATSGGSAEQIKYLVELGCIKPLCDLLTVMDSKIVQVALNGLENILRLGEQEAKRNGTGINPYCALIEEAYGLDKIEFLQSHENQEIYQKAFDLIEHYFGTEDEDSSIAPQVDLNQQQYIFQQCEAPMEGFQL
notes: also called GST-importin α5; GST-importin α; not shown: glutathione S-transferase (GST) fusion partner from a bacterial plasmid
B3: the binding result in experiment [3], in experiment [4] and in experiment [5] was “no binding” throughout.

B4: GAL4 AD-importin α5 fusion, aa 229-538 (Impα-C) (other, not shown: large carriers)
chain: TRNAVWALSNLCRGKSPPPEFAKVSPCLNVLSWLLFVSDTDVLADACWALSYLSDGPNDKIQAVIDAGVCRRLVELLMHNDYKVVSPALRAVGNIVTGDDIQTQVILNCSALQSLLHLLSSPKESIKKEACWTISNITAGNRAQIQTVIDANIFPALISILQTAEFRTRKEAAWAITNATSGGSAEQIKYLVELGCIKPLCDLLTVMDSKIVQVALNGLENILRLGEQEAKRNGTGINPYCALIEEAYGLDKIEFLQSHENQEIYQKAFDLIEHYFGTEDEDSSIAPQVDLNQQQYIFQQCEAPMEGFQL
notes: Yeast two-hybrid prey clone; also called amino-truncated importin α5; truncated importin α5 clone
On to B4, for which the binding result in experiment [6] was “binds”.
